The values that follow come from US20230236188A1.

This test concerns the target CD40 on human B cells (human) (UniProt P25942). In words: cell-based or functional assay.
Chain of UniProt P25942 (P25942 21-277): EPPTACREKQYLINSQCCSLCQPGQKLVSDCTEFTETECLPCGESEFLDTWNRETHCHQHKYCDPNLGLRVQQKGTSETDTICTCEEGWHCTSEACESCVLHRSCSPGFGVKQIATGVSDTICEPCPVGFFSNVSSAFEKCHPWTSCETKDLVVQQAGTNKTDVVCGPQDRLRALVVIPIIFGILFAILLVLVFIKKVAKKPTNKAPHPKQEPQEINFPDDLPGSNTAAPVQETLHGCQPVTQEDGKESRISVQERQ

With “human CD40L isoleucine zipper (CD40L-IZ) (from UniProt P29965 113-261) (ligand)”, the average CD40 internalization score after 1 h stimulation (unstimulated: 0.41) is 2.09, the percent of B cells with NF-kB p50 nuclear translocation (unstimulated: 29%) worked out at 58% and the percent of B cells with internalized CD40 (internalization score >2.5; unstimulated: 2.1%) was 42%.
Turning to “human CD40 ligand (CD40L), membrane form on cells (from UniProt P29965 1-261)”, the average CD40 internalization score after co-culture with 10% hCD40L-CHO cells came out at 1.69, the average CD40 internalization score on fresh B cells co-cultured 1 h with autologous CD40L-IZ-stimulated B cells that had upregulated CD40L was 1.26, the percent of B cells with CD40 downregulation after 1 h co-incubation with 1% hCD40L-CHO cells was found to be 5% and the percent of B cells with CD40 internalization after co-culture with 10% hCD40L-CHO cells was 33%. The percent of B cells with NF-kB p50 nuclear translocation after hCD40L-CHO cells (unstimulated: 29%) stood at 54%, the percent of fresh B cells with internalized CD40 after co-culture with autologous CD40L-IZ-stimulated B cells that had upregulated CD40L was 19.5%, the percent of fresh B cells with p50 nuclear translocation after co-culture with CD40L-IZ-stimulated B cells stood at 41% and the percent of total CD40lo/- B cells after 1 h co-incubation with 10% hCD40L-CHO cells was found to be 37%.
